Data reported in patent US10617749B1, “Composition of matter and methods for alteration of dendritic cell metabolism to augment cancer vaccine efficacy” (Duke University, priority 2016, dated 2020).
Entries after “also recorded” stand apart in the source; their conditions may differ.

What was measured:
[1] = system: bone marrow-derived DCs (BMDCs); assay: DC oxygen consumption rate (OCR) / OXPHOS, extracellular flux analysis; type: cell-based, murine; settings: BMDCs treated with the agent alone vs untreated
Experimental: (§1) DC energy metabolism was measured using the XF^e24 extracellular flux analyzer (Seahorse Bioscience), with the glycolysis stress test kit and the mitochondrial stress test kit as previously described (Everts et al., 2014; Zhao and Klimecki, 2015).
(§2) Murine bone marrow-derived DCs (BMDCs) were harvested and differentiated as previously described and purified using CD11c microbeads (Miltenyi Biotec) according to manufacturer's protocol. DC purity was monitored by flow cytometry and consistently found to be >95% CD11c+F4/80-. BRAFV600EPTEN−/−-Wnt5aKD and BRAFV600EPTEN−/−-NTC cell lines were generated and cultured as previously described. DC2.4, a murine dendritic cell line was kindly provided by Dr. Kenneth L. Rock (University of Massachusetts Medical School), and cultured as previously described. DC2.4β-cateninKD, DC2.4-CPT1AKD, and DC2.4-NTC stable cell lines were generated using a β-catenin-targeted, CPT1A-targeted, or control shRNA-expressing lentivirus followed by puromycin selection. DCs were treated with Wnt3a (100 ng/mL), Wnt5a (200 ng/mL), LPS (1 μg/mL), 1-MT, 2DG (1 mM), or ETO (100 µM) vs vehicle control either for 24 or 48 hrs prior to their use in both in vitro and in vivo experiments.

[2] = system: DC-induced CD4+ FoxP3+ Tregs; assay: In vitro Treg assay; type: cell-based, mouse; settings: for DC-mediated Treg differentiation in vitro: pre-treated DCs co-cultured with naïve CD4+ T cells
Experimental: In vivo Treg assay. DCs (C57, H-2^b) were pre-treated for 48 hours and delivered by intradermal injection into the footpad of Foxp3-mRFP mice. Draining inguinal and popliteal lymph nodes were resected 5 days later and analyzed for CD4^+ Foxp3^+ Tregs. In vitro Treg assay, DCs (Balb/c, H-2^d) were pre-treated for either 24 or 48 hrs, and re-plated at a 1:3 DC:T-cell ratio with purified naïve Foxp3-mRFP(H-2^b) CD4^+ Tcells. These co-cultures were incubated for 6 days and quantitated for CD4^+ FoxP3^+ Tregs by flow cytometry.
as §2

[3] = system: bone marrow-derived DCs (BMDCs); assay: DC glycolysis, extracellular acidification rate (ECAR); type: cell-based, murine; settings: with or without LPS
Experimental: as §1, §2

DC intracellular PpIX = assay: PpIX flow cytometry analysis; type: cell-based, mouse; settings: 48 hours treatment, then 1 mM δ-ALA 4 hrs
Experimental: Dendritic cells were terminally incubated in the presence of 1 mM δ-aminolevulinic acid (ALA) for 4 hrs. Intracellular PpIX was analyzed by flow cytometry as previously described (Hryhorenko et al., 1998).

murine DCs = assay: qrt-PCR / ELISA gene and cytokine expression in murine DCs; type: cell-based; settings: for PPAR-γ and CPT1A expression: murine primary DCs; for expression of key glycolytic enzymes (phosphofructokinase, hexokinase, pyruvate kinase): primary DCs
Experimental: Total RNA was isolated by RNeasy Plus Mini Kit(Qiagen). RNA(500 ng) was used in cDNA Synthesis (iScript, BioRad). Quantification of mRNA for genes involved in PPARγ signaling was performed using Mouse PrimePCR PPAR Array according to the manufacturer's protocol (BioRad). Real-time PCR was performed using an ABI7500 Real-Time PCR system (Life Technologies). Data analysis utilized the PrimePCR Analysis Software (BioRad). Conventional qPCR was performed using validated primers (Table 1) and SsoAdvanced Universal SYBR Green Super mix (BioRad) or Taqman probes (Applied Biosystems) for heme synthesis enzymes.
Murine IL-6 (eBioscience) and IL-12p40 (Becton Dickinson) ELISAs were performed according to manufacture's protocol.

DCs = assay: DC ATP generation; type: cell-based; settings: data not shown
Dendritic Cells = assay: BODIPY and fatty acid uptake assay; type: cell-based, murine; settings: TF2-C12 uptake, BODIPY
Experimental: Dendritic Cells were stained in 0.5 μg/ml BODIPY 493/503 in PBS for 15 min to determine neutral lipid content (Herber et al., 2010). Fatty acid uptake measurement in DCs were performed using a dodecanoic acid fluorescent TF2-C12 fatty acid (Sigma) according to the manufacturer's protocol.

[4] = system: human monocyte-derived DC; assay: PPARγ and CPT1A Western blot in human monocyte-derived DCs; type: cell-based
Source text: (§3) Primary antibodies including CPT1A (Cell signaling), PPAR-γ (Santa Cruz Biotechnology), β-catenin, β-actin (Millipore), p-AMPK(T172)/AMPK (Cell signaling), p-AKT(T308)/Akt (Cell Signaling) were used at 1:1000. Secondary antibodies including goat anti-rabbit IgG-HRP (Millipore) and goat anti-mouse IgG-HRP (Millipore) were used at 1:5000. Cells were lysed in Laemmli sample buffer after treatment and subjected to SDS-polyacrylamide gel electrophoresis and immunoblot analysis. For immunoprecipitation, cells were lysed in radio immunoprecipitation assay (RIPA) buffer [10 mM sodium phosphate (pH 8.0), 150 mM NaCl, 1% Triton X-100, 1% sodium deoxycholate, and 0.1% SDS in the presence of 1 mM DTT, 1 mM phenylmethylsulfonylfluoride, and a protease inhibitor cocktail (Sigma)], precleared with protein A beads, and then incubated with 1 μg of antibody against β-catenin or isotype control IgG with protein A-agarose beads on a rotator overnight at 4° C. After 3 washes with RIPA buffer, immunoprecipitated complexes were eluted in sample buffer by boiling and subjected to immunoblot analysis. Immunoblots were visualized by chemiluminescence substrate (ThermoFisher) and imaged by a ChemiDoc XRSplus system (BioRad).
(§4) Human Monocyte-derived Dendritic Cells were generated as previously described.

β-catenin-PPAR-γ complex = assay: β-catenin co-immunoprecipitation in primary DCs; type: cell-based, murine
Source text: as §3

DC IDO = assay: IDO enzymatic assay (kynurenine HPLC); type: cell-based, mouse; settings: purified DC cultures, Wnt5a or Wnt5a+ETO
Experimental: DC IDO enzyme activity was measured by the conversion of L-tryptophan to L-kynurenine in conditioned media by HPLC (Pallotta et al., 2011). Intracellular hemin levels were measured using a colorimetric assay kit (BioVision).

OT-1 CD8+ T cells = assay: T cell proliferation assay; type: cell-based, mouse; settings: SIINFEKL-loaded BMDCs co-incubated with OT-1 splenocytes
Experimental: Splenocytes of OT-1 mice (H-2^b) were isolated and stained with CellTrace Violet (ThermoFisher). Preconditioned DCs were loaded with ovalbumin peptide SIINFEKL, and co-cultured at a DC:splenocyte ratio of 40,000:120,000 cells for 72 hrs. CD8+ T cell proliferation was measured by the dilution of Cell Trace Violet dye by flow cytometry.

[5] = system: bone marrow-derived DCs (BMDCs); assay: Extracellular lactate assay; type: cell-based, murine; settings: BMDC culture media 0-48 hours
Experimental: L-Lactate levels were measured by lactate dehydrogenase conversion of L-lactate+NAD^+ to pyruvate+NADH following treatment with […] (Pesce et al., 1975). Lactate standards and samples were read at NADH specific absorbance 340 nm.

[6] = system: human monocyte-derived DCs; assay: OCR analysis of human monocyte-derived DCs; type: cell-based; settings: human monocyte-derived DCs, Wnt5a 48 hours
Experimental: Human DCs were differentiated from harvested peripheral blood mononuclear cells and pre-treated with Wnt5a 48 hours prior to OCR analysis. Short-term incubation with ETO was performed prior to analysis.
as §1, §4

BMDCs = assay: Immunoblot of p-AMPK(T172) and p-AKT(T308) in BMDCs; type: cell-based, murine; settings: Wnt5a 200 ng/mL
Source text: All data representative of 3 independent experiments.
as §3

NC(=O)c1ncn([C@@H]2O[C@H](CO)[C@@H](O)[C@H]2O)c1N [AICAR]
DC OXPHOS (OCR) [1]: suppresses OXPHOS

O=CC[C@@H](O)[C@H](O)[C@H](O)CO [2-DG, 2-deoxyglucose]
DC-mediated Treg differentiation in vitro [2]: enhancement of DC-dependent Treg expansion; also recorded: enhanced Treg differentiation

CC[C@H]1/C=C/C=C/C[C@@H](C)[C@H](O)[C@@](C)(O)C(=O)[C@@H](C)[C@H](O)[C@@H](C)C(=O)[C@@H](C)[C@H](O)[C@@H](C)/C=C/C(=O)O[C@@H]2[C@H](C)[C@H](CC1)O[C@]1(CC[C@H](C)[C@H](C[C@@H](C)O)O1)[C@H]2C [oligomycin]
DC-mediated Treg differentiation in vitro [2]: potently suppressed Wnt5a induction of DC-mediated Treg differentiation; also recorded: almost complete elimination of these Treg populations

Oc1nc(-c2ccc(C(F)(F)F)cc2)nc2c1CSCC2 [XAV939]
DC glycolysis (ECAR) [3]: promote DC glycolysis

Cn1cc(CC(N)C(=O)O)c2ccccc21 (stereo not drawn) [1-MT]
DC-dependent Treg differentiation promoted by melanoma-derived conditioned media ([2]; DCs with BRAFV600E-PTEN−/− conditioned media): only modestly suppressed

B1: Wnt5a: Wnt ligand used to treat DCs (200 ng/mL) (protein, UniProt P41221 62-380, looked up)
Protein Wnt-5a: IIGAQPLCSQLAGLSQGQKKLCHLYQDHMQYIGEGAKTGIKECQYQFRHRRWNCSTVDNTSVFGRVMQIGSRETAFTYAVSAAGVVNAMSRACREGELSTCGCSRAARPKDLPRDWLWGGCGDNIDYGYRFAKEFVDARERERIHAKGSYESARILMNLHNNEAGRRTVYNLADVACKCHGVSGSCSLKTCWLQLADFRKVGDALKEKYDSAAAMRLNSRGKLVQVNSRFNSPTTQDLVYIDPSPDYCVRNESTGSLGTQGRLCNKTSEGMDGCELMCCGRGYDQFKTVQTERCHCKFHWCCYVKCKKCTEIVDQFVCK
DC levels of PpIX (DC intracellular PpIX): enhances DC levels of the PpIX prosthetic group in a manner that depends on the induction of FAO | IL-6 and IL-12 expression in primary DCs (murine DCs; BMDCs, qrt-PCR): suppresses IL-6 and IL-12 expression in primary DCs | expression of ALAS1 and further PpIX/heme synthesis enzymes (murine DCs; DCs, qrt-PCR): upregulate the expression of ALAS1 as well as several additional enzymes involved in PpIX synthesis | PPAR-γ and CPT1A expression (murine DCs): directly induce CPT1a expression in a PPARγ-dependent manner; also recorded: induces the upregulation of PPAR-γ and CPT1A | expression of key glycolytic enzymes (phosphofructokinase, hexokinase, pyruvate kinase) (murine DCs; qrt-PCR): suppresses the expression of key glycolytic enzymes; also recorded: suppress the expression of the key glycolytic enzymes | DC OXPHOS (OCR) [1]: strongly promoting DC OXPHOS; also recorded: promotes DC oxidative phosphorylation (OXPHOS) | DC ATP generation (DCs): no net effect on DC ATP generation | DC fatty acid uptake and lipid stores (Dendritic Cells): enhance DC fatty acid uptake and lipid stores | PPAR-γ and CPT1A expression [4]: induces the upregulation of PPAR-γ and CPT1A | PPAR-γ binding to β-catenin (β-catenin-PPAR-γ complex): PPAR-γ to bind to β-catenin upon Wnt5a stimulation | DC IDO enzymatic activity (kynurenine) (DC IDO): capable of promoting DC IDO enzymatic activity | DC-mediated antigen-specific CD8+ T cell proliferation (OT-1 CD8+ T cells): suppresses LPS-induced DC-mediated antigen-specific T cell proliferation | lactate production [5]: suppress lactate production | OCR [6]: induces OCR in human monocyte-derived DCs | AMPK activation (Thr-172 phospho-AMPK) (BMDCs; 24 and 48 hrs): suppress AMPK activation | DC Akt Thr-308 phosphorylation (BMDCs; 48 hrs): no significant impact | DC glycolysis (ECAR) [3]: inhibits DC glycolysis; also recorded: inhibit LPS-mediated DC glycolysis; also recorded: eliminates the glycolytic reserve of DCs while also significantly suppressing the lipopolysaccharide (LPS)-induced glycolytic surge; also recorded: suppresses LPS-induced DC glycolysis

B2: Wnt3a: canonical Wnt ligand used to treat DCs (100 ng/mL) (protein, UniProt P56704 19-352, looked up)
Protein Wnt-3a: SYPIWWSLAVGPQYSSLGSQPILCASIPGLVPKQLRFCRNYVEIMPSVAEGIKIGIQECQHQFRGRRWNCTTVHDSLAIFGPVLDKATRESAFVHAIASAGVAFAVTRSCAEGTAAICGCSSRHQGSPGKGWKWGGCSEDIEFGGMVSREFADARENRPDARSAMNRHNNEAGRQAIASHMHLKCKCHGLSGSCEVKTCWWSQPDFRAIGDFLKDKYDSASEMVVEKHRESRGWVETLRPRYTYFKVPTERDLVYYEASPNFCEPNPETGSFGTRDRTCNVSSHGIDGCDLLCCGRGHNARAERRREKCRCVFHWCCYVSCQECTRVYDVHTCK
DC levels of PpIX (DC intracellular PpIX): failed to enhance PpIX synthesis in DCs | PPAR-γ and CPT1A expression (murine DCs): failed to induce the expression of both PPAR-γ and CPT1A in DCs | expression of key glycolytic enzymes (phosphofructokinase, hexokinase, pyruvate kinase) (murine DCs; qrt-PCR): promotes the expression of key glycolytic enzymes | DC OXPHOS (OCR) [1]: no changes in either DC OXPHOS or glycosis | DC glycolysis (ECAR) [3]: no changes in either DC OXPHOS or glycosis
